Source: paper PMC8123688

Molecular target: TSH receptor (TSHR) on human ML-1 cells (human (endogenous in ML-1)) (UniProt P16473)
Experiment: radioligand binding; real-time kinetic binding assay with LigandTracer; 10^6 ML-1 cells seeded in a tilted Petri dish; 2 mL of 30 nM radiolabeled ligand in culture medium for 1 h, then medium without ligand to follow release; Kd from binding/release curve (GraphPad Prism)

Sequence of TSH receptor (TSHR) on human ML-1 cells (human (endogenous in ML-1)) (P16473 21-764): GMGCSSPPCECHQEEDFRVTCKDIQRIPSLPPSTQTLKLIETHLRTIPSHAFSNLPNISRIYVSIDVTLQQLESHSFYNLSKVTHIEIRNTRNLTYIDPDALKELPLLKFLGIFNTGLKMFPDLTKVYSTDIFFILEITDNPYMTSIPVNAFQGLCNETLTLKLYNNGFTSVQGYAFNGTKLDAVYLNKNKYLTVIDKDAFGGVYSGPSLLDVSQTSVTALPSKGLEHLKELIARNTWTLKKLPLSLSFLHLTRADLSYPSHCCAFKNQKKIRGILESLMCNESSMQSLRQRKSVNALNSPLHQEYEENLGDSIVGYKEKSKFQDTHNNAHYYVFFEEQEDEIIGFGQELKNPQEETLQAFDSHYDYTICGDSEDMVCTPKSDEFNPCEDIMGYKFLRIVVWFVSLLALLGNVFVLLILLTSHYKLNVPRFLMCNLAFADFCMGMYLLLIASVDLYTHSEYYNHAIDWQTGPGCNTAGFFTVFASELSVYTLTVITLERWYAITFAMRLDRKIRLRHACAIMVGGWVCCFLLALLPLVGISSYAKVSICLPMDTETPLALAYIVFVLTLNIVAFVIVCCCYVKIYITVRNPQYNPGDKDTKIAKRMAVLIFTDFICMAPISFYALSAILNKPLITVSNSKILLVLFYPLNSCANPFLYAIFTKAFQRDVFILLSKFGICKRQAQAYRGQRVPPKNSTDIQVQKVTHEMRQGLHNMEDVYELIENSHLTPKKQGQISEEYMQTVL
Sequence of 99mTc-HYNIC-TR1402, radiolabeled superagonist recombinant human TSH analogue TR1402 (P01215 25-116): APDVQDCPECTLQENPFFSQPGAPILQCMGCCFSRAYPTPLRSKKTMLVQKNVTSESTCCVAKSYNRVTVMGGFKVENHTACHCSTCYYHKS
Sequence of 99mTc-HYNIC-TR1402, radiolabeled superagonist recombinant human TSH analogue TR1402 (P01222 21-132): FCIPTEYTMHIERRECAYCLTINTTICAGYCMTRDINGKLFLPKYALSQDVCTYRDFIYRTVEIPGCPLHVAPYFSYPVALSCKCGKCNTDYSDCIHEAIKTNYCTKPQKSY
Sequence of 99mTc-HYNIC-TR1401, radiolabeled superagonist recombinant human TSH analogue TR1401 (P01215 25-116): as the sequence (P01215 25-116) above
Sequence of 99mTc-HYNIC-TR1401, radiolabeled superagonist recombinant human TSH analogue TR1401 (P01222 21-132): as the sequence (P01222 21-132) above

| Substance | Kd |
| --- | --- |
| 99mTc-HYNIC-TR1401, radiolabeled superagonist recombinant human TSH analogue TR1401 (from UniProt P01215 25-116; P01222 21-132) (ligand) | 2.7 nM |
| 99mTc-HYNIC-TR1402, radiolabeled superagonist recombinant human TSH analogue TR1402 (from UniProt P01215 25-116; P01222 21-132) (ligand) | 0.5 nM |
